Experimental data from patent publication US20180312557A1, “Leg1 Protein, Leg1 Gene, and Uses and Drugs thereof” (ZHEJIANG UNIVERSITY, priority 2016, published 2018).

What was measured:
[1] = mLeg1 protein in liver of mLeg1Δ/Δ mice after intragastric administration (immunoprecipitation); type: in vivo, mouse
Protocol: (§1) 22.1 The column chromatography partially purified mLeg1 protein was intragastrically administered to the mLeg1^Δ/Δ mice at 50 ng of mLeg1 per gram of body weight of the mice.
(§2) 22.2 The mice were sacrificed at different time points (0, 10, 20, 40, 60 min) after intragastric administration and liver samples were collected, an immunoprecipitation experiment was conducted to pull down mLeg1 protein (if there is any) and its interacting protein in the liver by using mLeg1 antibodies Reference may be made to steps 21.2-21.5.

[2] = test system: Akt phosphorylation of the HepG2 cells; test: Akt phosphorylation of HepG2 cells incubated with mLeg1 protein partially purified from salivary glands (Western blot); type: cell-based, human
Protocol: 16.1.1 The salivary glands of two to three wild-type mice were harvested and rinsed in the pre-cooled PBS buffer, minced into fine pieces with scissors, and then transferred to a tissue homogenizer, added with 4 ml of lysate buffer (50 mM Tris-Hcl, pH 8.0, 150 mM NaCl, 0.5% NP40, 2× complete), fully homogenized on ice by pipetting through a 23G needle repeatedly, incubated for 30 minutes at 4° C. in a vertical shaker, and then centrifuged at 12000 g at 4° C. for 15 minutes to collect the supernatant.
16.1.2 The supernatant was passed through a sepharose 6B gel filtration column at a constant speed at 4° C., wherein the PBS buffer was used for elution, and different eluted components were separately collected by 4 ml per tube.
16.1.3 The content of mLeg1 in each tube was detected by Western blot. The tube with the highest mLeg1 content was taken as partially purified mLeg1, and the concentration of mLeg1 protein was estimated using the recombinantly-expressed mLeg1 protein in Escherichia coli as a reference, for subsequent experiments.
16.1.4 The partially purified mLeg1 protein was diluted to different concentrations (3.14×10^−2 ng/0.314 ng/μl and 3.14 ng/μl), and the different concentrations of mLeg1 protein were added to HepG2 culture medium respectively to culture HepG2, followed by incubation at 37° C. for 20 minutes, then total protein was extracted (as to the method of extraction, reference can be made to step 13.2), and Akt phosphorylation level at the different concentrations was detected by Western blot (referring to step 14.3, anti-p-Akt antibody (S473, Cell signaling #4060P) was selected as the corresponding antibody, and the dilution ratio was 1:1000).
16.2.1 mLeg1 protein-enriched components from wild-type mice and from mLeg1^Δ/Δ mice were extracted respectively. […]
16.2.3 The Akt phosphorylation level at different concentrations was detected by Western blot (reference can be made to step 13.2 for details, anti-p-Akt antibody (S473, Cell signaling #4060P) was selected as the corresponding antibody, and the dilution ratio in use was 1:1000).

[3] = test system: Akt phosphorylation of the HepG2 cells; test: Akt phosphorylation of HepG2 cells incubated with salivary gland cell culture supernatant (Western blot); type: cell-based, human; details: wild type supernatant containing mLeg1
Protocol: 14.1 Culture of human liver cancer cells HepG2: 10% newborn calf serum (GIBCO Cat. No. 16010-159) in DMEM high-glucose culture medium was used to culture the cell line. Cells were kept in a 37° C. incubator with 5% CO2, and saturated humidity. At the time of passage, the culture solution was thoroughly removed, and the left cells was digested with 0.25% typsin (EDTA-free, Sigma Cat. No. T4549), and an appropriate amount of cells were subjected to subculture or subsequent experiments.
14.2 The adherent HepG2 cells were incubated using the culture supernatant of the primary culture of the wild-type mouse salivary gland cells and the culture supernatant of the mLeg1^Δ/Δ mice, and the cell samples were collected 20 minutes later and 10 hours later.
14.3 The content of p-Akt was detected using an Akt phosphorylation antibody by Western blot, so as to reflect Akt phosphorylation level.

[4] = biological target: T1, EGFR (Mus musculus, UniProt Q01279); test: EGFR interacting with mLeg1 in liver after intragastric administration (co-immunoprecipitation); type: in vivo
T1 construct: from tissue; host or cells: liver of mLeg1^Δ/Δ mice
Protocol: as §1, §2

[5] = biological target: T2, EGFR (Homo sapiens, UniProt P00533); test: Effect of EGFR inhibitor on mLeg1-induced Akt and EGFR phosphorylation in HepG2 cells; type: cell-based; details: HepG2, 15 minutes
T2 construct: endogenous in cells; host or cells: HepG2
From the text: 20.1 Culture of the HepG2 cell: reference may be made to step 18.1 for details.

[6] = biological target: T2, EGFR; test: Phospho-RTK array and EGFR phosphorylation specific antibody, HepG2 cells: EGFR; type: cell-based
Protocol: 19.1 The screening of receptor tyrosine kinase was performed by a RTK assay kit (Proteome Profiler Human Phospho-RTK Array Kit, R&D Cat. no. ARY001B) according to the manufacturer's instruction. The kit can detect 49 of 58 RTKs in total. The operation steps are summarized as follows: mLeg1 and a control were used to treat the cells (cells were grown in a 10 cm petri dish) separately, and then 500 μl of lysis buffer17 was used to lyse the cells; the RTK screening membrane was blocked for 1 hour using Assay buffer1 and then coated with a cell lysate for binding overnight, the resultant product was washed three times with 1× Wash Buffer, 10 minutes each time, then added with Anti-Phospho-Tyrosine-HRP Detection Antibody diluted with 1× Array Buffer2 at the ratio of 1:5000 for incubation at room temperature for 2 hours; followed by washing 3 times with 1× Wash Buffer, 10 minutes each time, then applied with Chemi Reagent Mix and developed, and finally imaged in a fluorescent chemiluminescent imager (Clinx Science Instruments Cat. No. 3400) with the signals recorded.
Further, the inventors of the present disclosure detected the impact of mLeg1 on intracellular EGFR activation level by an EGFR phosphorylation specific antibody.

[7] = test system: Akt phosphorylation in the liver; test: Liver Akt phosphorylation after intragastric administration of mLeg1; type: in vivo, mouse
Protocol: as §1, §2
This may result from the fact that mLeg1 binds with EGFR rapidly, and transmitted downstream signals rapidly, as in in vitro experiments, mLeg1 can activate EGFR within 1 minute and the phosphorylation level of EGFR began to decrease within 3 minutes. Further, the inventors of the present disclosure also detected the activation of such intragastrically administered mLeg1 protein on downstream Akt. […] According to the above results, mLeg1 secreted from the salivary glands can be transferred into the liver and activates EGFR in the liver, thereby activating Akt to finally regulate the physiological functions of the liver cells.

B1: mLeg1 protein: mouse secretory protein (SEQ ID NO: 2) encoded by mLeg1 gene, partially purified from salivary glands by column chromatography (protein, listed as Mus musculus)
chain: MAVLASWVWVLAGCFCAAVAEVSDSSDPYPPLWEDSPEQLSDYMMEDGNYIINPWVYTDRMGMYRILLEETAMYFAKYGPENEQNLLWGLPLQFGWQYQSGRLADPTGMTDCGNELNESLCVSVDSWWADINYYLSVIPFLAAVDSGITGISPNQITILPPPKDQMRFCYNVSDCQSAVPGTMNRWRDFFQYMQLNSSDFDGLLNYLWEAHASSLDYPTSAFGDRYNFYSEKEANFEENWAIAVNYLAAARLPTTQNRTYSFQRGLPPRVLVDTDIAPFIPDFTPLQNEVLVSLKLLGDTDRNSGSLSLTLWENLMSTKLARTLFLKAFEEFLATSS
modifications: partially purified
mLeg1 in the liver ([1]; 40 minutes and 60 minutes after intragastric administration): decreased | time at which the amount of mLeg1 protein in the liver reached the maximum value ([1]; mLeg1Δ/Δ mice, 50 ng per gram of body weight, intragastric): 20 min | induction of Akt phosphorylation ([2]; HepG2, 37° C. 20 minutes, 3.14×10^−2, 0.314 and 3.14 ng/μl): could induce Akt phosphorylation | level of partially purified mLeg1 able to induce Akt phosphorylation of the HepG2 cells ([2]; HepG2, 20 minutes): nanogram levels | ability to induce Akt phosphorylation ([2]; HepG2, 20 minutes, compared with corresponding components of mLeg1Δ/Δ salivary glands): significantly higher | time within which Akt phosphorylation is induced [3]: ≤ 20 min | time at which the amount of EGFR that interacts with mLeg1 reached the maximum [4]: 10 min | EGFR phosphorylation ([5]; mLeg1 treatment): induced EGFR phosphorylation | Akt phosphorylation ([5]; partially purified mLeg1 vs BSA control): could be induced | intracellular EGFR activation level ([6]; EGFR phosphorylation specific antibody): could activate the EGFR very rapidly | tyrosine phosphorylation in EGFR ([6]; HepG2, Phospho-RTK array): increases significantly | time within which EGFR is activated ([6]; in vitro experiments): ≤ 1 min | time within which the phosphorylation level of EGFR began to decrease ([6]; in vitro experiments): ≤ 3 min | Akt phosphorylation in the liver ([7]; 10 minutes after intragastric administration): increased | Akt phosphorylation in the liver ([7]; 40 minutes to 60 minutes after intragastric administration): more significant
